Test results as given in article PMC4278885.

Legend:
[1] = target: GFP-binding nanobody Enhancer (camelid); assay: Molecular Force Assay (Protein-MFA); multiplexed measurement of Fig. 2B: nanobody on the glass slide, sfGFP on the DNA reference; references compared: unmodified 40 bp DNA, 40 bp DNA with propynyl bases, 20 bp DNA with polyamide P1, P2 or P3 (1 uM); pH 7.4; read-out NF
[2] = target: GFP-binding nanobody Enhancer (camelid); assay: Molecular Force Assay (Protein-MFA); Enhancer covalently on the glass slide via its C-terminus (PEG linker); GFP attached at its N-terminus to the DNA reference; reference 20 bp DNA stabilized with polyamide P1; one contact process with a single stamp; retraction 1 um/s; read-out Normalized Fluorescence (NF), 0.5 = protein bond as strong as the reference

Sequence of GFP-binding nanobody Enhancer (camelid) (heavy, as listed by the source): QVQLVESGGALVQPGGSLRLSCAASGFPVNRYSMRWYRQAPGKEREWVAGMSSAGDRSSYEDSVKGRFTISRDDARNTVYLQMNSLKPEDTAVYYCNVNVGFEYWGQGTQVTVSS

Normalized Fluorescence (NF), 40 bp DNA reference with propynyl bases [1]: 0.8 | Normalized Fluorescence (NF), 20 bp DNA reference with polyamide P1 [2]: 0.353
Substance: superfolder GFP (from UniProt P42212 1-238) (natural protein)
